Data taken from patent US20230002480A1.

Tests used:
Assay in all cases: cell-based or functional assay
[1] = biological target: HIV-1 Env of pseudovirus HIV-16055-2.3 (HIV-1)
[2] = biological target: HIV-1 Env of pseudovirus 191084 B7-19 (HIV-1)
[3] = biological target: HIV-1 Env of pseudovirus 62357_14_D3_4589 (HIV-1)
[4] = biological target: HIV-1 Env of pseudovirus Du172.17 (HIV-1)
[5] = biological target: HIV-1 Env of pseudovirus 620345.c01 (HIV-1)
[6] = biological target: HIV-1 Env of pseudovirus 235-47 (HIV-1)
[7] = biological target: HIV-1 Env of pseudovirus REJO4541.67 (HIV-1)
[8] = biological target: HIV-1 Env of pseudovirus ZM233M.PB6 (HIV-1)
[9] = biological target: HIV-1 Env of pseudovirus 1054_07_TC4_1499 (HIV-1)
[10] = biological target: HIV-1 Env of pseudovirus C3347.c11 (HIV-1)
[11] = biological target: HIV-1 Env of pseudovirus Ce704809221_1B3 (HIV-1)
[12] = biological target: HIV-1 Env of pseudovirus CNE8 (HIV-1)
[13] = biological target: HIV-1 Env of pseudovirus 3103.v3.c10 (HIV-1)
[14] = biological target: HIV-1 Env of pseudovirus R3265.c06 (HIV-1)
[15] = biological target: HIV-1 Env of pseudovirus R2184.c04 (HIV-1)
[16] = biological target: HIV-1 Env of pseudovirus Q842.d12 (HIV-1)
[17] = biological target: HIV-1 Env of pseudovirus C1080.c03 (HIV-1)
[18] = biological target: HIV-1 Env of pseudovirus Ce703010054_2A2 (HIV-1)
[19] = biological target: HIV-1 Env of pseudovirus Ce0393_C3 (HIV-1)
[20] = biological target: HIV-1 Env of pseudovirus T251-18 (HIV-1)
[21] = biological target: HIV-1 Env of pseudovirus 7030102001E5(Rev-) (HIV-1)
[22] = biological target: HIV-1 Env of pseudovirus 6535.3 (HIV-1)
[23] = biological target: HIV-1 Env of pseudovirus CAAN5342.A2 (HIV-1)
[24] = biological target: HIV-1 Env of pseudovirus HIV-001428-2.42 (HIV-1)
[25] = biological target: HIV-1 Env of pseudovirus CAP210.2.00.E8 (HIV-1)
[26] = biological target: HIV-1 Env of pseudovirus 1056_10_TA11_1826 (HIV-1)
[27] = biological target: HIV-1 Env of pseudovirus CNE58 (HIV-1)
[28] = biological target: HIV-1 Env of pseudovirus 249M B10 (HIV-1)
[29] = biological target: HIV-1 Env of pseudovirus X1193_c1 (HIV-1)
[30] = biological target: HIV-1 Env of pseudovirus Q259.d2.17 (HIV-1)
[31] = biological target: HIV-1 Env of pseudovirus Ce0682_E4 (HIV-1)
[32] = biological target: HIV-1 Env of pseudovirus 0815.v3.c3 (HIV-1)
[33] = biological target: HIV-1 Env of pseudovirus 3301.v1.c24 (HIV-1)
[34] = biological target: HIV-1 Env of pseudovirus BJOX009000.02.4 (HIV-1)
[35] = biological target: HIV-1 Env of pseudovirus 246F C1G (HIV-1)
[36] = biological target: HIV-1 Env of pseudovirus X1254_c3 (HIV-1)
[37] = biological target: HIV-1 Env of pseudovirus 3817.v2.c59 (HIV-1)

Work on N49P6 (antibody) yielded an IC50 [1] of 0.117 µg/mL, an IC80 [1] of 0.586 µg/mL and an MPI [1] of 100. The IC50 [2] was 0.062 µg/mL, the IC80 [2] was 0.257 µg/mL and the MPI [2] was 100. The IC50 [3] was 0.098 µg/mL, the IC80 [3] was 0.296 µg/mL and the MPI [3] was 100. The IC50 [4] was 20.8 µg/mL, the IC80 [4] was greater than 50 µg/mL and the MPI [4] was 74. For the same substance, the IC50 [5] was 22.9 µg/mL, the IC80 [5] was greater than 50 µg/mL and the MPI [5] was 70. For the same substance, the IC50 [6] was 13 µg/mL, the IC80 [6] was 46.4 µg/mL and the MPI [6] was 82. The IC50 [7] was 0.066 µg/mL, the IC80 [7] was 0.215 µg/mL and the MPI [7] was 100. The IC50 [8] was 1.23 µg/mL, the IC80 [8] was 4 µg/mL and the MPI [8] was 99. For the same substance, the IC50 [9] was 0.624 µg/mL, the IC80 [9] was 2.85 µg/mL and the MPI [9] was 100. It also gave an IC50 [10] of 0.08 µg/mL, an IC80 [10] of 0.266 µg/mL and an MPI [10] of 100. For the same substance, the IC50 [11] was 1.67 µg/mL, the IC80 [11] was 12.8 µg/mL and the MPI [11] was 97. The IC50 [12] was 0.072 µg/mL, the IC80 [12] was 0.245 µg/mL and the MPI [12] was 100. The IC50 [13] was 0.582 µg/mL, the IC80 [13] was 1.57 µg/mL and the MPI [13] was 100. For the same substance, the IC50 [14] was 0.101 µg/mL, the IC80 [14] was 0.443 µg/mL and the MPI [14] was 100. The IC50 [15] was 0.028 µg/mL, the IC80 [15] was 0.077 µg/mL and the MPI [15] was 100. For the same substance, the IC50 [16] was 0.034 µg/mL, the IC80 [16] was 0.091 µg/mL and the MPI [16] was 100. The IC50 [17] was 0.181 µg/mL, the IC80 [17] was 0.661 µg/mL and the MPI [17] was 100. The IC50 [18] was 0.245 µg/mL, the IC80 [18] was 0.841 µg/mL and the MPI [18] was 100. The IC50 [19] was 0.608 µg/mL, the IC80 [19] was 3.25 µg/mL and the MPI [19] was 100. It also gave an IC50 [20] of 0.344 µg/mL, an IC80 [20] of 0.929 µg/mL and an MPI [20] of 100. The IC50 [21] was 0.354 µg/mL, the IC80 [21] was 1.17 µg/mL and the MPI [21] was 100. For the same substance, the IC50 [22] was 0.417 µg/mL, the IC80 [22] was 1.34 µg/mL and the MPI [22] was 100. It also gave an IC50 [23] of 0.657 µg/mL, an IC80 [23] of 1.83 µg/mL and an MPI [23] of 100. For the same substance, the IC50 [24] was 0.016 µg/mL, the IC80 [24] was 0.05 µg/mL and the MPI [24] was 100. It also gave an IC50 [25] of 22.6 µg/mL, an IC80 [25] greater than 50 µg/mL and an MPI [25] of 73. It also gave an IC50 [26] of 0.209 µg/mL, an IC80 [26] of 0.606 µg/mL and an MPI [26] of 100. For the same substance, the IC50 [27] was 0.036 µg/mL, the IC80 [27] was 0.1 µg/mL and the MPI [27] was 100. The IC50 [28] was 0.122 µg/mL, the IC80 [28] was 0.549 µg/mL and the MPI [28] was 100. For the same substance, the IC50 [29] was 0.074 µg/mL, the IC80 [29] was 0.224 µg/mL and the MPI [29] was 100. It also gave an IC50 [30] of 24.4 µg/mL, an IC80 [30] greater than 50 µg/mL and an MPI [30] of 75. The IC50 [31] was 0.095 µg/mL, the IC80 [31] was 0.315 µg/mL and the MPI [31] was 100. The IC50 [32] was 0.194 µg/mL, the IC80 [32] was 1.25 µg/mL and the MPI [32] was 100. For the same substance, the IC50 [33] was 0.054 µg/mL, the IC80 [33] was 0.149 µg/mL and the MPI [33] was 100. For the same substance, the IC50 [34] was 0.32 µg/mL, the IC80 [34] was 1.46 µg/mL and the MPI [34] was 100. It also gave an IC50 [35] of 0.513 µg/mL, an IC80 [35] of 2.51 µg/mL and an MPI [35] of 99. For the same substance, the IC50 [36] was 15.7 µg/mL, the IC80 [36] was 34.2 µg/mL and the MPI [36] was 91. The IC50 [37] was 16.9 µg/mL, the IC80 [37] was greater than 50 µg/mL and the MPI [37] was 78.

N49P18.1 (antibody) was tested, and the IC50 [2] was 5.59 µg/mL, the IC80 [2] was 16.9 µg/mL and the MPI [2] was 98. The IC50 [5] was greater than 50 µg/mL, the IC80 [5] was greater than 50 µg/mL and the MPI [5] was 0. The IC50 [6] was 23 µg/mL, the IC80 [6] was greater than 50 µg/mL and the MPI [6] was 66. It also gave an IC50 [10] of 4.2 µg/mL, an IC80 [10] of 14.3 µg/mL and an MPI [10] of 99. For the same substance, the IC50 [12] was 16.2 µg/mL, the IC80 [12] was 44.7 µg/mL and the MPI [12] was 83. It also gave an IC50 [13] of 8.56 µg/mL, an IC80 [13] of 32.4 µg/mL and an MPI [13] of 93. The IC50 [14] was 27.9 µg/mL, the IC80 [14] was greater than 50 µg/mL and the MPI [14] was 66. The IC50 [15] was 3.38 µg/mL, the IC80 [15] was 11.8 µg/mL and the MPI [15] was 100. The IC50 [17] was greater than 50 µg/mL, the IC80 [17] was greater than 50 µg/mL and the MPI [17] was 50. The IC50 [20] was 23 µg/mL, the IC80 [20] was greater than 50 µg/mL and the MPI [20] was 70. For the same substance, the IC50 [29] was 3.12 µg/mL, the IC80 [29] was 23.9 µg/mL and the MPI [29] was 94. The IC50 [32] was 0.741 µg/mL, the IC80 [32] was 8.45 µg/mL and the MPI [32] was 99. For the same substance, the IC50 [33] was 3.25 µg/mL, the IC80 [33] was 11.3 µg/mL and the MPI [33] was 99. It also gave an IC50 [34] of 0.418 µg/mL, an IC80 [34] of 1.43 µg/mL and an MPI [34] of 100. For the same substance, the IC50 [36] was 24.8 µg/mL, the IC80 [36] was greater than 50 µg/mL and the MPI [36] was 61. For the same substance, the IC50 [37] was greater than 50 µg/mL, the IC80 [37] was greater than 50 µg/mL and the MPI [37] was 34.
